# Reference: the supplement of paper PMC9170038
# System: K4 kissing-loop RNA reporter
# Experiment: apparent KD of K4 kissing-loop reporter; higher = weaker reporter binding
# Settings: Eterna round: R107
# Protocol: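 RNA-MaP round R107: designed RNA switches with theophylline, tryptophan, arginine or FMN aptamers are transcribed on-chip within common flanks. They are titrated with a labelled K4 kissing-loop RNA reporter in RNA-MaP buffer (100 mM Tris pH 7.5, 80 mM KCl, 4 mM MgCl2), without ligand or with the indicated ligand. Median apparent KD per design.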
# [1] = input ligand: theophylline 20 uM
# [2] = input ligand: tryptophan 2.4 mM
# 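Also: bound reporter read as fluorescence of individual clusters on recovered sequencing chips by microscopy, with normalized cluster intensities fitted with a binding model.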
Sequence,apparent KD of K4 kissing-loop reporter (input ligand: FMN 200 uM),apparent KD of K4 kissing-loop reporter (input ligand: arginine 13.2 mM),apparent KD of K4 kissing-loop reporter (input ligand: none),apparent KD of K4 kissing-loop reporter [1],apparent KD of K4 kissing-loop reporter [2]
AGACCUCAGUGAUGUUGAGGUAACGCUGAUACCAGUGACUUAAUUCACCCUUGGCAGCAGUCCACCAAGGUAUCUGAUUAGGUCU [Theo A Ex t5],153 nM,163 nM,133 nM,144 nM,138 nM
UGAUAGGACAGAAGGAGCGGUAGUGAUGUUGCCAAAAGAAUAAGGUGUCAAAAGACACCCUACCAGGUAGGUCGCUGUCCUAUCU,346 nM,368 nM,423 nM,429 nM,289 nM
AUUGAUAUAUAUAUUUGAUUUUUAUGUGAUACCAGACAAGGCAUAGUCCCUUGGCAGCACUUUAUAUUUACGAGUGAUGUUCGUA [JR_SSTheophyA_Sub025],192 nM,180 nM,180 nM,187 nM,154 nM
AGCGUCCCUACGGCCGCCACUGGGAGUGAUGUUCCCAGGUUAGGCCUGAGGAUACUAAGGAUCGCCAGGACCGGGUAGCGACCAU [Azaonbe],88.5 nM,81.1 nM,80.3 nM,69.2 nM,92.3 nM
GCUAUGGUAGGAAGGAGCGCUUAUUCAUUAAUAAGAGUGAUGUUCGAUAAUGAAUAUUUAUAGCAGGUAGGUCGCCUACUAUAGC [Arginine B K4 2],300 nM,223 nM,230 nM,206 nM,237 nM
AACAGCAAUGCGGCCGCCACUUCGAGUUCAGUGAUGUUGAAAGAAUUAAAUAAAGAUCCCAAGAGGAGGACCGGGCAGUGCUGUU [Default title],596 nM,448 nM,530 nM,621 nM,418 nM
UAAUCCUAGUGAUAAUUAUCAAGUGGUGGGCGAGGACCGGUACGGCCGCCACUCGAAUAUGCAGUGAUGUUGUAAUCCGGAUAAU [Exclusion - Tryptophan A (Freestyle 7)],639 nM,636 nM,534 nM,715 nM,441 nM
CCGACUGCAGGAAGGAGCGGCGGUUGGAGUGAUGUUCCGGGUAGUGAUGUUACCAAGAUCCGCCAGGUAGGUCGCCUGUUGCUCG [Same State Arginine B GF11],134 nM,117 nM,129 nM,122 nM,120 nM
CAUACGCAUGGAGGAUAUGAGAUUACUCAUAUCAUUUAAUAUUCUCAGUGAUGUUGAGAUUUGGGCUCAGAAGGCCAUGUGUAUG [Ex FMN B 15],479 nM,304 nM,339 nM,343 nM,317 nM
UGAUACCAGACGGCCGCCACUUCUGCAAGUCAAAGACUUGCCAAGGGAAUCGUCCAGUGAUGUUGGAGGACCGGGUCUGGUAUCU [FiskerMod 3 - Jieux - Exclusion - Tryptophan B],880 nM,445 nM,817 nM,585 nM,668 nM
UGUACAUGUCACCGAGUGAUGUUCGACGAUACCAGACUCGAUAGAGUCCCUUGGCAGCGUAACGCAUGCCAAAGUGGCAUGUACU [#SwitchBubble 10 #K4Early],925 nM,521 nM,721 nM,496 nM,598 nM
UGUGUUGUUGUGAUGUUUGGUGUUGCAGGGCAGGAUAUCGUAGAGGCGAGAAGGGCUUUUGUGCGGUAUGAGUGAUGUUUGUAGG [rrcgsmullin],197 nM,218 nM,270 nM,369 nM,250 nM
UGAUAGGACAGAAGGAGCGGAAGUGAUGUUUCCAAAAGGUAAGGUCGACAAAGUCGACCCUUCCAGGUAGGUCGCUGUCCUAUCU [ArgBX 11 #Palindromic #SwitchBubble #StaticStem],88.5 nM,102 nM,92.8 nM,89.2 nM,82.4 nM
UGUCAUUGGUCGGCCGCCACUAGGACCGGGACUUCUCUAGUGAUGUUAGUCUGGUCGGCCGCCACUAGGACCGGGACCGAUGACU [KL-SSTryp-B14 #DoubleAptamer],561 nM,368 nM,671 nM,327 nM,103 nM
AACGGCCAGUCGGCCGCCACUCAAAGCAGUGAUGUUGCUAACUUUCUAAAAGAGUGAUGUUCUUAGAGGACCGGGACUAAUGUAA [Exclusion Tryptophan B GF 2],115 nM,147 nM,125 nM,143 nM,102 nM
AGACUACCACACUGUCAAUAGACAGUGAAUUAGGAUAUGCUGAUAAGCAGAAGGAGUGAUGUUCCGAGGUAGUCAAUAAAAUAAU [FmnAX 13 U30+G66],220 nM,204 nM,216 nM,283 nM,211 nM
CGUUUAUAGCAGGAUACCAGUACCCAUAAAGUACGUUAAUAGUAGAGUGAUGUUCUAAAGUACCCUUGGCAGCUUCCCGUGACCC [ExTheophylB.W],103 nM,160 nM,133 nM,182 nM,79.6 nM
AAAAUAAACCAGUGAUGUUGGUGUCUAGAUACCAGCGACGAAAGUCGCCCUUGGCAGCUAUGGACGUACAAAAUAAGUACGUCCU [MatMod 6 - Jieux - Same State - Theophylline A],647 nM,459 nM,617 nM,679 nM,612 nM
UGUAUAGUCAGAAGGAGCGUGAACGAUCGAGAAUCGAUCAGCCAGUGAUGUUGGCAGGAAUCACAGGUAGGUCGCUGACUGUACA [Arg B SS t3],237 nM,208 nM,258 nM,240 nM,208 nM
ACGUAGUUCUAGGAUACCAGCCAAGGCCCAGGACAAAAGUCCUGGGUCGCCAGUGAUGUUGGCCCUUGGCAGCCUAGAACUACGA [Omei KL Theo B Exc B v11],421 nM,358 nM,457 nM,387 nM,444 nM
AAUAAAAUCACGGCCGCCACUGAAUAAUUGGUAAGUAGUGAUGUUACUUUACUUUUCUUAUUUAACAGGACCGGGUGAAUAUUUA [JR_ExcTryptoB_Sub009],104 nM,83.4 nM,98.5 nM,88.2 nM,123 nM

Sequence,apparent KD of K4 kissing-loop reporter (input ligand: FMN 200 uM),apparent KD of K4 kissing-loop reporter (input ligand: arginine 13.2 mM),apparent KD of K4 kissing-loop reporter (input ligand: none),apparent KD of K4 kissing-loop reporter [1],apparent KD of K4 kissing-loop reporter [2]
CCAACAACGAGUGAUGUUCGUUGAUCUGAAGGAGCGUCAAUAAUGACAGGUAGGUCGCAGAUAAUUGGAUAUAGGGCAAUAGCUC [Same State Arginine A GF13],109 nM,116 nM,125 nM,115 nM,102 nM
GUCCCGAGUGAUGUUCGGGUCGUUUGGGAAGGAGCGCCCGGAAGGGCAGGUAGGUCGCCCGGACCGUGCAGGUAACUGUGCGGCC [#2 Same State - Arginine A Attempt #18 (HarryS)],176 nM,146 nM,181 nM,196 nM,178 nM
GAGGGCUCGGGAGGAUAUGAGUCUAGUGAUGUUAGGCGGUCCAUGCGCGUGGCGCGUUAUGCCCUUUUAGAAGGCCCGAGCCCGC [#2 Exclusion - FMN B Attempt #23 (HarryS)],109 nM,76.4 nM,90.5 nM,83.3 nM,93.8 nM
GCGUCAUCGAAAGGAUAUGGAGUAGUGAUGUUGAUCCAUAUGCUCACGCAUAGCCGAGAACAUCGACCAGAAGGUUCAAGAACUG [theeternabot_exclusion_KL_FMN_B_41],672 nM,509 nM,757 nM,520 nM,459 nM
CAACCGUAACACGAUACCAGCCUAGAAGCCAGUGAUGUUGGCCUUUUUUCGGAAAUGAAAGGCCCUUGGCAGCGUGGAUAAAAUG [Lelabiised],451 nM,464 nM,505 nM,379 nM,501 nM
AAGCAGUCACUCGAAGCCAUCGAAGAUGGCCGAGGACCGGUACGGCCGCCACUCGGAGUGAUGUUCCGAAGACUGCAAAAUAAAA,313 nM,303 nM,355 nM,363 nM,306 nM
GUGCGCGCGGCGGCCGCCACUCGCAUGAGAGUGAUGUUCUUGCCCGGGCCGCAAGGCCCGGGUGUGAGGACCGGGCCGGGCUGCG [#2 Same State - Tryptophan B Attempt #26 (HarryS)],115 nM,1.09 nM,180 nM,0.148 nM,425 nM
UGUAUGUGAUUUGAUACCAGACCAGCUGGUGGUGUAUGAGUGAUGUUCAUGUUGGUUUGGGUCCCUUGGCAGCAAAUCGCAUACU [KL-SSTheoB30],14.5 nM,7.4 nM,11.8 nM,8.88 nM,11.7 nM
ACCAUCAAAGAUGGCCAGGACUCCGCUGAUACCAGAGUGAAAACACUCCCUUGGCAGCAGGUGAGUGAUGUUCACGAGUCCUGGA [Omel KL Theo A SS B v6],986 nM,330 nM,476 nM,448 nM,836 nM
GGUGUUGUUUGUGCUGUUUUCCUCGUUUCUCGAGGACCGGUACGGCCGCCACUCGAGUGAUGUUUGGGUAGCGAUCCUUGUUAGU [Bdazzled - #6 Exc. Tryptophan A],335 nM,215 nM,313 nM,272 nM,383 nM
GCCGUACGCAUGGAUACCAGCGUACGUCACCUAGCAGUGAUGUUGCUAUUGCCACGUAAACGCCCUUGGCAGCCAUGCGUACGGC,495 nM,448 nM,478 nM,181 nM,445 nM
CCAUCGCUAUUCGAUACCAGCUACUUAGUGAUGUUAAGUUUAUAUCCACUGUAGGUGGAAAGCCCUUGGCAGCGAAUAGUGAUGG [Theophylline B K4 25],436 nM,412 nM,491 nM,223 nM,425 nM
GGUAGCAUGGCGGCCGCCACUUAUGUUCACAUAGUGAUGUUAUGUUCACAUUUAUGGCCCUGCUUAAGGACCGGGCCAUGCUACC,118 nM,90.3 nM,105 nM,82.1 nM,272 nM
UGAUAGGACAGAAGGAGCGGCAGUGAUGUUGCCAAAAGGGUAAGGUGUCAAAAGACACCCUGCCAGGUAGGUCGCUGUCCUAUCU,166 nM,173 nM,162 nM,163 nM,134 nM
GCUCGUCAUGUCAGCGGUGGUACUGUCGAUACCAGUGCCGUAAGGCGCCCUUGGCAGCGAUGCGCUGGAGUGAUGUUCCAGCGUU [#2 Exclusion - Theophylline A Attempt #32 (HarryS)],110 nM,92.9 nM,116 nM,120 nM,119 nM
CCCUUAGACUCGGCCGCCACUCGUACCGAGAGCAUGCCACCCAUUAGUGAUGUUAAUUUGUCCUUGAGGACCGGGAGCCUAGGAA [theeternabot_exclusion_KL_Trp_B_44],941 nM,789 nM,980 nM,986 nM,822 nM
AGACGCCAGUCGGCCGCCACUCACAGCAGUGAUGUUGCUGAGAAUCUAGAAGAGUGAUGUUCUUAGAGGACCGGGACUCCAGUCG [Same State Tryptophan B GF 7],354 nM,363 nM,383 nM,311 nM,306 nM
GCCGUAGAUGGAAGGAGCGUGUCCAAACCUCAUUCAUGUACACACGAGUGAUGUUCGUGUACACAGGUAGGUCGCCAUCUACGGC,413 nM,314 nM,374 nM,410 nM,363 nM
GCGCGUCAUGUCAGCGGUGACACUGUCGAUACCAGCGCCGCAAGGCGCCCUUGGCAGCGACGUGCUGGAGUGAUGUUCCAGCGUC [#2 Exclusion - Theophylline A Attempt #22 (HarryS)],159 nM,113 nM,145 nM,142 nM,140 nM
UAUGAAUGUGGAGGAUAUUGAUUGAAUCUUGGUCUGGAGUGAUGUUCCGGGAAGCCUUGGAUUCAUCGAGAAGGCCAUGGAUAGU [#03 K4 FMN B Same State],111 nM,111 nM,118 nM,109 nM,95.9 nM
UGAUACCAGACUGAUACCAGCUAGUGAUGUUAGCUAAAAUCAGGGUCAAAGACCCUGUCUGGCCCUUGGCAGCAGUCUGGUAUCU [TheoBX 10 #SwitchBubble #StaticStem],137 nM,120 nM,134 nM,191 nM,120 nM
